# Laboratory results published in US20140322196A1.
# Several values for one entry are separate records, joined by “and”; a condition that tells them apart may be missing. Identical values can stand only once.
# What was measured:
# [1] = biological target: Hemagglutinin (HA) of Influenza A virus A/Parma/5/06 (Wisconsin-like) H3N2 (Influenza A virus A/Parma/05/06 H3N2); test: cell-based or functional assay
# [2] = biological target: Hemagglutinin (HA) of Influenza A virus A/Puerto Rico/8/34 H1N1 (PR8 virus) (Influenza A virus A/Puerto Rico/8/34 H1N1) (UniProt P03452); test: cell-based or functional assay
# [3] = biological target: Hemagglutinin (HA) of Influenza A virus A/Roma-ISS/2/08 (Brisbane-like) (oseltamivir-sensitive) H1N1 (Influenza A virus A/RomaISS/2/08 H1N1); test: cell-based or functional assay
# [4] = biological target: Hemagglutinin (HA) of Influenza A virus A/Turkey/Italy/2676/99 H7N1 (Influenza A virus A/Turkey/Italy/2676/99 H7N1); test: cell-based or functional assay
# [5] = biological target: Hemagglutinin (HA) of Influenza A virus A/Roma-ISS/2/08 (Brisbane-like) (oseltamivir-sensitive) H1N1 (Influenza A virus A/RomaISS/2/08 H1N1)
Substance,HI titre [1] [pM],HI titre [2] [nM],HI titre [3] [pM],HI titre [4] [fM],percentage of virus binding to bLf [5]
Lactoferrin from bovine milk (bLf) (from UniProt P24627 20-708),3000,3,6000,93.1,52.9% and 34.1% and 47.2%
"… (SEQ ID NO: 1), bLf C-lobe peptide 418-429",0.7,0.7,1.4,18,–
"… (SEQ ID NO: 2), bLf C-lobe peptide 506-522",0.7,0.35,1.4,46.5,–
